Changes are numbered by the printed parent chain.
B1: S16-T17-K20: human tissue factor triple mutant with alanine at positions 16, 17 and 20 (protein, UniProt P13726 33-295, looked up, variant S16A T17A K20A)
Tissue factor: SGTTNTVAAYNLTWKAANFATILEWEPKPVNQVYTVQISTKSGDWKSKCFYTTDTECDLTDEIVKDVKQTYLARVFSYPAGNVESTGSAGEPLYENSPEFTPYLETNLGQPTIQSFEQVGTKVNVTVEDERTLVRRNNTFLSLRDVFGKDLIYTLYYWKSSSSGKKTAKTNTNEFLIDVDKGENYCFSVQAVIPSRTVNRKSTDSPVECMGQEKGEFREIFYIIGAVVFVVIILVIILAISLHKCRKAGVGQSWKENSPLNVS
B2: Arg-131: human tissue factor mutant, Arg-131 exchanged for alanine (protein, UniProt P13726 33-295, looked up, variant R131A)
Tissue factor: B1 Tissue factor with A16S, A17T, A20K, R131A
B3: R44: mhuTF in which arginine is substituted in place of D44 (protein, UniProt P13726 33-295, looked up, variant D44R)
Tissue factor: B1 Tissue factor with A16S, A17T, A20K, D44R
B4: Thr-139/Ser-142: human tissue factor mutant, Thr-139 and Ser-142 exchanged for alanine (protein, UniProt P13726 33-295, looked up, variant T139A S142A)
Tissue factor: B1 Tissue factor with A16S, A17T, A20K, T139A, S142A
B5: Arg-136: human tissue factor mutant, Arg-136 exchanged for alanine (protein, UniProt P13726 33-295, looked up, variant R136A)
Tissue factor: B1 Tissue factor with A16S, A17T, A20K, R136A
B6: Phe-140: human tissue factor mutant, Phe-140 substituted by Ala (protein, UniProt P13726 33-295, looked up, variant F140A)
Tissue factor: B1 Tissue factor with A16S, A17T, A20K, F140A
B7: Val-64/Tyr-71 to Ala: human tissue factor Val-64/Tyr-71 to Ala double mutant (protein, UniProt P13726 33-295, looked up, variant V64A Y71A)
Tissue factor: B1 Tissue factor with A16S, A17T, A20K, V64A, Y71A
B8: Arg-135: human tissue factor mutant, Arg-135 substituted by Ala (protein, UniProt P13726 33-295, looked up, variant R135A)
Tissue factor: B1 Tissue factor with A16S, A17T, A20K, R135A
B9: Arg-196: human tissue factor mutant, Arg-196 replacement by alanine in the Fc-Gc-loop (protein, UniProt P13726 33-295, looked up, variant R196A)
Tissue factor: B1 Tissue factor with A16S, A17T, A20K, R196A
B10: K65-D66-K68: human tissue factor triple alanine mutant at positions 65, 66 and 68 (protein, UniProt P13726 33-295, looked up, variant K65A D66A K68A)
Tissue factor: B1 Tissue factor with A16S, A17T, A20K, K65A, D66A, K68A
B11: Asp-58 to Ala: human tissue factor mutant, Asp-58 to Ala exchange (EN-strand) (protein, UniProt P13726 33-295, looked up, variant D58A)
Tissue factor: B1 Tissue factor with A16S, A17T, A20K, D58A
B12: Ile-22 to Ala: full-length human tissue factor mutant, Ile-22 replaced by alanine (protein, UniProt P13726 1-295, looked up, variant I22A)
chain: METPAWPRVPRPETAVARTLLLGWVFAQVAGASGTTNTVAAYNLTWKSTNFKTALEWEPKPVNQVYTVQISTKSGDWKSKCFYTTDTECDLTDEIVKDVKQTYLARVFSYPAGNVESTGSAGEPLYENSPEFTPYLETNLGQPTIQSFEQVGTKVNVTVEDERTLVRRNNTFLSLRDVFGKDLIYTLYYWKSSSSGKKTAKTNTNEFLIDVDKGENYCFSVQAVIPSRTVNRKSTDSPVECMGQEKGEFREIFYIIGAVVFVVIILVIILAISLHKCRKAGVGQSWKENSPLNVS
modifications: full-length
notes: full-length human tissue factor mutant, Ile-22 replaced by alanine

Columns and labels:
Assay type in all cases: biochemical
[1] = system: coagulation in recalcified plasma; assay: One stage clotting (coagulation) assay of specific functional activity of full-length TF mutants in CHO cell lysates; settings: full-length Ala mutant expressed in CHO cells, cell lysate, coagulant activity normalized to antigen, relative to wild-type TF
Method: The full-length TF mutants prepared above were analyzed for function by coagulation assay. […] Coagulation factor deficient plasmas were purchased from George King Bio-medical. The chromogenic substrate, Spectrozyme FXa, was from American Diagnostica Inc. (Greenwich, Conn.).
An alternative approach was to use a polyvalent antibody purified by affinity for capturing TF followed by detection with the TF8-5G9 monoclonal antibody described above.
Initiation of coagulation by wild-type and mutant TF in recalcified plasma was determined after lysis of cell pellets from 2×10^6 cells/ml for each expressed full-length mutant with 15 mM octyl-glucopyranoside in HBS for 15 minutes at 37 C. followed by a 3-fold dilution.
All data represented are based on at least three independent determinations performed in duplicate.

recombinant VIIa = assay: Linked chromogenic assay with purified VIIa and factor X, apparent dissociation constant of the TF-VIIa interaction; settings: for binding of Factor VIIa: triple alanine mutants; for change in KDapp for the TF-VIIa interaction compared to wild-type TF (ratio KD mutant/KD wild-type): full-length Ala mutants, linked chromogenic assay
Method: (§1) The lysate was prepared by treating cell pellets with 15 mM octyl-glucopyranoside for 15 minutes at 37 C. followed by a 3-fold dilution. […] Formed TF-VIIa complexes were quantified with substrate factor X added at 100 nM for a fixed time. Samples were then removed from the reaction and quenched in 100 mM EDTA in TBS (20 mM Tris-HCl 140 mM NaCl, pH 7.4). […] The rate of Spectrozyme hydrolysis, measured as the increase in absorbance (mOD/min), was determined at ambient temperature in a kinetic plate reader (Molecular Devices, Mountain View, Calif.) followed by quenching and monitoring of product factor Xa formation using the Spectrozyme FXa.
Enzfitter (Elsevier Biosoft) programs were employed to calculate the KDapp from the experimentally determined bound VIIa, and free VIIa which was obtained by subtracting bound VIIa from the initial VIIa concentration.

Factor X = assay: Functional cleavage of Factor X by the TF-VIIa complex (reaction rate Vmax), D44 mutants
Method: as §1
Additional mhuTF mutants were prepared based on amino acid residue substitutions at amino acid residue position number D44.

| Molecule | loss of function (reduction in specific functional activity as % of wild-type activity) [1] | change in KDapp for the TF-VIIa interaction compared to wild-type TF (ratio KD mutant/KD wild-type) (recombinant VIIa) [fold] | further results |
| --- | --- | --- | --- |
| B1 | 98% | – | binding of Factor VIIa (recombinant VIIa): not substantially bind Factor VIIa |
| B2 | 30-50% | – | – |
| B3 | – | – | loss of function (specific functional activity, Vmax) compared to wild-type (Factor X; calculated from Vmax rates): 75%; reaction rate (Vmax) (Factor X; cleavage of Factor X): ~0.5 per second |
| B4 | 30-50% | – | – |
| B5 | 30-50% | – | – |
| B6 | 30-50% | 18 | – |
| B7 | – | 2.1 | – |
| B8 | 30-50% | 7.4 | – |
| B9 | – | 3.5 | – |
| B10 | 70% | – | binding of Factor VIIa (recombinant VIIa): not substantially bind Factor VIIa |
| B11 | – | 41 | – |
| B12 | 35% | 11 | – |

— patent US5726147A, “Human mutant tissue factor compositions useful as tissue factor antagonists” (priority 1995, dated 1998)
